Data set [1] deals with JO-4 (affinity-enhanced junction opener; self-dimerizing HAdV3-V239D fiber knob) (human adenovirus type 3 (HAdV3)) (UniProt P04501). In words: SPR.
The data set “crystal structure” deals with the molecule itself. In words: crystal structure.

“Recombinant human DSG2 protein (desmoglein 2) (from UniProt Q14126 50-609) (receptor)”: in data set [1], the Kd was found to be 1.4 nM.

B1: HAdV3 fiber knob mutant V239D (nondimerized, trimeric) (domain or fragment, human adenovirus type 3 (HAdV3))
chain: ALKNNTLWTGPKPEANCIIEYGKQNPDSKLTLILVKNGGIVNGYVTLMGASDYVNTLFKNKNVSINVELYFDATGHILPDSSSLKTDLELKYKQTADFSARGFMPSTTAYPFDLPNAGTHNENYIFGQCYYKASDGALFPLEVTVMLNKRLPDSRTSYVMTFLWSLNAGLAPETTQATLITSPFTFSYIREDD
With B1, the binding result in the data set “crystal structure” is “binds”.
